The series concerns the molecule itself. In words: SEC; HiPrep 16/60 Sephacryl S-100 HR; proteins incubated in PBS overnight at 4 °C before dilution in column buffer (50 mM sodium phosphate, 150 mM sodium chloride, pH 7.2); 0.8 mL/min; monomer and dimer.

B1: Recombinant I. scapularis AKR/SUB (natural protein)
chain: not shown
notes: Akirin/Subolesin (AKR/SUB), Ixodes scapularis, Q4VRW2; also called Subolesin; tick SUB; source: Escherichia coli, Champion pET101 Directional TOPO Expression kit, as previously described [34,35]
For B1, the “stoichiometry N” value was 2.

A word on the stoichiometry N: it is a count of units in the complex or per binding partner.

These data come from article PMC7157757, “A Novel Combined Scientific and Artistic Approach for the Advanced Characterization of Interactomes: The Akirin/Subolesin Model” (Vaccines, 2020).
